What was measured:
Test in all cases: co-IP; receptor-mediated co-immunoprecipitation: sample (5.5 ug) with hFasRECD-Fc (8.8 ug) and Protein G conjugated magnetic beads (1.0 mg) in 1.0 ml 50 mM Tris-HCl, 150 mM NaCl (pH 7.5), 1% Nonidet P40, 0.5% sodium deoxycholate; precipitate read by SDS-PAGE with silver stain
Conditions in all cases: both partners purified
[1] = biological target: T1, sulfo-Cy3-MTZ conjugated hFasLECD-TCO (human, UniProt P48023 139-281, N184Q | N250Q, cysteine in the N-terminal tag sequence modified with trans-cyclooctene-PEG3-maleimide and conjugated with sulfo-Cy3-methyltetrazine; estimated 1.5 fluorochromes per hFasLECD trimer)
T1 construct: holds the reactive cysteine; human Fas ligand extracellular domain, residues 139-281, with N184Q and N250Q; Derived from NFK3G1CG4-hFasLECD; Not every subunit of the trimer carries the fluorochrome; also called Sulfo-Cy3-MT-hFasLECD; sulfo-Cy3 conjugated hFasLECD; source: P. pastoris secretory expression, purified (cation exchange); modified with TCO-PEG3-MAL, reacted with sulfo-Cy3-MTZ, purified …
T1 sequence: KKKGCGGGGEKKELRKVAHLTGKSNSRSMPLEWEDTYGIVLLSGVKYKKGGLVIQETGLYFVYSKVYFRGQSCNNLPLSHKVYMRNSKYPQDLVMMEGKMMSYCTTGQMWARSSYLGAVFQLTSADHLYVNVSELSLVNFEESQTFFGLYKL

[2] = biological target: T2, Avidin-hFasLECD conjugate (human | chicken, UniProt P48023 139-281; P02701 25-152, N184Q | N250Q, cysteine in the N-terminal tag sequence modified with trans-cyclooctene-PEG3-maleimide, joined through the TCO-MTZ reaction to an MTZ-PEG4 group on avidin | lysine residues modified with …)
T2 construct: holds the reactive cysteine; human Fas ligand extracellular domain, residues 139-281, with N184Q and N250Q; avidin from chicken egg white, native homotetramer; Covalent chemical conjugate, thought to be one avidin tetramer to one hFasLECD trimer; on SDS-PAGE mainly one avidin subunit joined to one hFasLECD subunit, less of one avidin subunit with two hFasLECD subunits; not shown: FLAG, …
T2 sequence (P02701 25-152, stated change not applied, one chain of several): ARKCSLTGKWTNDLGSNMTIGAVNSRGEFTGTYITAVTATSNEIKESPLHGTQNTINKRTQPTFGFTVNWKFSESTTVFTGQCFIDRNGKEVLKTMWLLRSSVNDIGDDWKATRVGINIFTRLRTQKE

[3] = biological target: T3, TCO-derivative of NFK3G1CG4-hFasLECD (human, UniProt P48023 139-281, N184Q | N250Q, cysteine in the N-terminal tag sequence modified with trans-cyclooctene-PEG3-maleimide)
T3 construct: holds the reactive cysteine; human Fas ligand extracellular domain, residues 139-281, with N184Q and N250Q; also called hFasLECD-TCO; source: P. pastoris secretory expression, purified (cation exchange); modified with TCO-PEG3-MAL, size-exclusion chromatography; not shown: FLAG, N-terminal, kept
T3 sequence: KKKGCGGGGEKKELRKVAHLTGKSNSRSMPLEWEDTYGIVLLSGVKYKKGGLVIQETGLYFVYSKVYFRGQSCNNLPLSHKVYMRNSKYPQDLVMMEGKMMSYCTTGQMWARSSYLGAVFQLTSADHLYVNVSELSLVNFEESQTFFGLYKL

[4] = biological target: T4, sulfo-Cy3-TCO conjugated hFasLECD-MTZ (human, UniProt P48023 139-281, N184Q | N250Q, cysteine in the N-terminal tag sequence modified with methyltetrazine-PEG4-maleimide and conjugated with sulfo-Cy3-trans-cyclooctene; estimated 1.6 fluorochromes per hFasLECD trimer)
T4 construct: holds the reactive cysteine; human Fas ligand extracellular domain, residues 139-281, with N184Q and N250Q; Derived from NFK3G1CG4-hFasLECD; Not every subunit of the trimer carries the fluorochrome; also called Sulfo-Cy3-TM-hFasLECD; sulfo-Cy3 conjugated hFasLECD; source: P. pastoris secretory expression, purified (cation exchange); modified with MTZ-PEG4-MAL, reacted with sulfo-Cy3-TCO, purified …
T4 sequence: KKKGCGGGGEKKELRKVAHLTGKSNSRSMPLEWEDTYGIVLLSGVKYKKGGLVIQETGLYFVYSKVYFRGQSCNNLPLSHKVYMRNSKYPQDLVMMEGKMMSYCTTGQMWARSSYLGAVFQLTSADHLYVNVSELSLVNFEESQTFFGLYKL

Measured: binding result

B1: human Fas receptor extracellular domain-human IgG1 Fc domain fusion protein (Fc fusion, UniProt P25445 26-173, looked up)
chain: QVTDINSKGLELRKTVTTVETQNLEGLHHDGQFCHKPCPPGERKARDCTVNGDEPDCVPCQEGKEYTDKAHFSSKCRRCRLCDEGHGLEVEINCTRTQNTKCRCKPNFFCNSTVCEHCDPCTKCEHGIIKECTLTSNTKCKEEGSRSN
notes: human Fas receptor (hFasR) extracellular domain; also called hFasRECD-Fc; source: baculovirus - Bombyx mori expression system, purified
binds: all assays above

— paper PMC5496246, “Site-specific chemical conjugation of human Fas ligand extracellular domain using trans-cyclooctene – methyltetrazine reactions” (BMC Biotechnology, 2017)
